This is an account of results in US20250339529A1 (MINK THERAPEUTICS, published 2025).

Residue numbers refer to the chain shown, from its start. Numbers in names are those of the source.

Test [1] concerns the target T1, BCMA antigen (UniProt Q02223 1-54, limits assumed).
T1 construct: also called wild type BCMA
T1 sequence (looked up): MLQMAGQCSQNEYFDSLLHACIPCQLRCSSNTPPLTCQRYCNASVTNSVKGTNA
The experiment in a line: SPR (Biacore T200), IgG captured on a protein A chip, huBCMA as analyte, 1:1 Binding model, 25 C. Here is the method: (§1) To test the affinity of BCMA F6G variants their binding domains were expressed as IgGs and captured to a protein A chip. BCMA antigen was flowed over the chip at […] concentrations. Experiment was run on Biacore T200. […] The CARs were expressed as IgGs and captured to a protein A chip. BCMA antigen was flowed over the chip at […]. concentrations. Experiment was run on Biacore T200.
Background: Surface plasmon resonance follows binding to a sensor surface in real time, without labels.

In test [2] the target is T2, BCMA-Fc antigen (UniProt Q02223 1-54).
T2 construct: Immobilized on a protein A chip
T2 sequence (looked up): T1 sequence (looked up)
The test can be described thus: flow cytometry, lentivirally transduced iNKT cells stained with BCMA-Fc and A647 anti-human IgG Fc; Donor 1, Enriched on K562-BCMA; Non transduced control 7.76. Here is the method: (§2) Purified and a-GalCer expanded iNKT cells from 2 donors were stimulated with TransAct (Miltenyi) and transduced with lentivirus (MOI 3) encoding for various 2nd Generation BCMA-CAR molecule and secreted IL-15. Constructs including F6G-Var2 IL-15, F6G variant 2 (no IL-15), F1G-IL-15, bb2121-IL-15, and CD19-CAR-IL-15 were tested. Cells were expanded for 10 to 12 days then transduced cells were co-cultured with K562 cells expressing BCMA at a ratio iNKT:K562 of 1:1. Cells were cultured and enriched with media supplemented with supporting cytokines IL-2 (100 IU/mL), IL-15 (100 UI/mL) and IL-21 (20 IU/mL). […]
(§3) Transduced cells pre-co-culture and enriched cells post co-culture with K562-BCMA were analyzed for CAR expression by flow cytometry (FIG. 17). iNKT cells were incubated with a LIVE/DEAD (Biolegend) reagents to separate live from dead cells and then stained for cell surface markers BCMA-CAR or CD19-CAR, BUV395 CD8 (BD, clone RPA-T8) and BUV563 CD4 (BD, clone OKT4). BCMA-CAR expression was detected with an unconjugated, primary BCMA-Fc reagent (AcroBiosystems) while CD19 CAR expression was detected with an unconjugated, primary CD19-Fc reagent (AcroBiosystems). […]

Test [3] addresses T2, BCMA-Fc antigen. The test can be described thus: flow cytometry, lentivirally transduced iNKT cells stained with BCMA-Fc and A647 anti-human IgG Fc; Donor 2, Transduced; Non transduced control 0.74. Here is the method: as §2, §3
(A flow cytometer gives signals particle by particle.)

In test [4] the target is T2, BCMA-Fc antigen. The test can be described thus: flow cytometry, lentivirally transduced iNKT cells stained with BCMA-Fc and A647 anti-human IgG Fc; Donor 1, Transduced; Non transduced control 2.00. Here is the method:
as §2, §3

The target in test [5] is T2, BCMA-Fc antigen. The test can be described thus: flow cytometry, lentivirally transduced iNKT cells stained with BCMA-Fc and A647 anti-human IgG Fc; Donor 2, Enriched on K562-BCMA; Non transduced control 1.34. Here is the method:
as §2, §3

The target in test [6] is T1, BCMA antigen. The experiment in a line: SPR (Biacore 4000), cell-free expressed scFv on BCMA antigen. From the text: Further, a germlined version of F6 (F6G) was affinity matured by a combination of two methods: Accelerated Drug Discovery (ADD) approach and affinity maturation of by phage libraries. FIGS. 9A-9C describe the ADD approach. FIG. 9A is a schematic representation of the CDR positions undergone mutagenesis. Each amino acid in the heavy and light CDRs was substituted with 8 different amino acids; Tyr, Ser, Pro, Leu, his, Gly, Asp, Asn. Fragments containing single amino acids substitutions were generated by mutagenesis PCR. The PCR fragments were then used as a template to express the scFv in a cell free system. Affinity KD (M) values of mutant scFvs binding to BCMA antigen. Experiment was run in Biacore 4000. The dotted line indicates the binding of the parental F6G clone. KD below the dotted line means improvement in affinity. […] Individual Biacore sensorgrams for E to Y substitution in position 49 of CDRL2 are shown (FIG. 9C).

The target of test [7] is T1, BCMA antigen. The experiment in a line: flow cytometry, iNKT cells transiently transfected with BCMA CAR-RFP mRNA and stained with soluble BCMA-APC, two donors. Here is the method:
INKT cells from two donors were transiently transfected with F6G variants and anti-BCMA-CAR iNKT cell-mediated killing of tumor cells were tested. Flow cytometry analysis of RFP expression to show CAR expression and antigen binding with BCMA-APC in BCMA-CAR iNKTs (FIGS. 13A-13C). The level of BCMA expression on each tumor cell line was assessed by flow cytometry where left peak show isotype staining and right peak show BCMA expression (FIG. 13D). iNKT cells expressing anti-BCMA CAR (as shown in FIG. 13A) were co-cultured with tumor cell lines endogenously expressing BCMA or K562 for 24 hrs at 3 different effector-to-target ratios. After 24 hr co-coculture, cytotoxicity assay was analyzed by flow cytometry for percentage of dead target cells (FIG. 13E), percentage of CD69/CD25 co-expressing iNKT cells (FIG. 13F) and percentage of 4-1BB expressing iNKT cells (FIG. 13G).

Test [8] concerns the target T1, BCMA antigen. The experiment in a line: SPR (Biacore T200), IgG captured on a protein A chip, huBCMA as analyte, 1:1 Binding model, 25 C; same panel as in FIG. 11. Here is the method:
as §1

What is called Kd is a measure of binding affinity in units of concentration. Higher therefore signals lower affinity. One may read the koff as a measure of how fast the partners let go of each other. One may read the kon as a measure of how fast the partners come together. As for Bb2121 huIgG1 (antibody), in the test with BCMA antigen [1], the Kd came out at 1.67 nM, the koff came to 0.00484 s⁻¹ and the kon turned out to be 2.89e+06 M⁻¹ s⁻¹.
On to “bb2121 CAR on iNKT cells (clinical benchmark)”, for which the % of cells in the CAR+ gate came out at 95.5% in the test with BCMA-Fc antigen [2], 36.2% with BCMA-Fc antigen [3], 15.9% with BCMA-Fc antigen [4] and 94.1% with BCMA-Fc antigen [5].

B1: F6G scFv (germlined F6, parental clone of the ADD mutagenesis) (scFv)
scFv: QVQLVQSGAEVKKPGASVKVSCKASGYTFTGYYMHWVRQAPGQGLEWMGWMNPNSGNTGYAQKFQGRVTMTRNTSISTAYMELSSLRSEDTAVYYCARAQWEPLDYWGQGTLVTVSSGGGGSGGGGSGGGASSYELTQPPSVSVSPGQTARITCSGDALPKKYTYWYQQKSGQAPVLVIYEDTKRPSGIPERFSGSSSGTMATLTISGAQVEDEADYYCLSTDPTGQESVFGGGTKLTVLGQP
notes: scFv expressed in a cell free system from PCR fragments; also called parental F6G clone; germline F6G
For the molecule B1, the binding result with BCMA antigen [6] is given as “binds”.

B2: F6G scFv with E to Y substitution in position 49 of CDRL2 (scFv)
scFv: B1 scFv with E181Y
notes: Cell free expressed scFv; also called E to Y substitution in position 49 of light CDRL2
For the molecule B2, the binding result in the test with BCMA antigen [6] is “binds”.

B3: F1G scFv CAR on iNKT cells (other)
chain: QVQLVQSGAEVKKPGASVKVSCKASGYTFTSYGISWVRQAPGQGLEWMGWISAYNGNTYYAEDLQGRLTMTTDTSTSTAYMELRSLRSDDTAVYYCAREGSYYDSSGYYLPYWGQGTLVTVSSGGGGSGGGGSGGGASQSALTQPRSVSGSPGQSVTISCTGTSSDVGAYNYVSWYQQHPGKAPKLMIYDVTERPSGVPDRFSGSKSGNTASLTISGLQAEDEADYYCSSYTSSSIAFGGGTKLTVLGQPAAATTTPAPRPPTPAPTIASQPLSLRPEACRPAAGGAVHTRGLDFACDIYIWAPLAGTCGVLLLSLVITLYCKRGRKKLLYIFKQPFMRPVQTTQEEDGCSCRFPEEEEGGCELRVKFSRSADAPAYQQGQNQLYNELNLGRREEYDVLDKRRGRDPEMGGKPRRKNPQEGLYNELQKDKMAEAYSEIGMKGERRRGKGHDGLYQGLSTATKDTYDALHMQALPPR
notes: Chimeric antigen receptor on iNKT cells with secreted IL-15; also called F1G-IL-15; F1G IL-15
Take B3: the “% of cells in the CAR+ gate” value with BCMA-Fc antigen [2] is 31.4%; with BCMA-Fc antigen [3], 20.9%; in the test with BCMA-Fc antigen [4], 20.7%; in the test with BCMA-Fc antigen [5], 93.1%.

B4: F6G-Var1 (other)
CAR polypeptide: QVQLVQSGAEVKKPGASVKVSCKASGYTFTGYYMHWVRQAPGQGLEWMGWMNPNSGNTGYAQKFQGRVTMTRNTSISTAYMELSSLRSEDTAVYYCARAQWEPLDYWGQGTLVTVSSGGGGSGGGGSGGGASSYELTQPPSVSVSPGQTARITCSGDALPKKYTYWYQQKSGQAPVLVIYYDTKRPSGIPERFSGSSSGTMATLTISGAQVEDEADYYCLSTDPTGQESVFGGGTKLTVLGQPAAATTTPAPRPPTPAPTIASQPLSLRPEACRPAAGGAVHTRGLDFACDIYIWAPLAGTCGVLLLSLVITLYCKRGRKKLLYIFKQPFMRPVQTTQEEDGCSCRFPEEEEGGCELRVKFSRSADAPAYQQGQNQLYNELNLGRREEYDVLDKRRGRDPEMGGKPRRKNPQEGLYNELQKDKMAEAYSEIGMKGERRRGKGHDGLYQGLSTATKDTYDALHMQALPPR
notes: also called F6G-Var1 CAR on iNKT cells (transient, CAR-RFP mRNA)
As for B4, in the test with BCMA antigen [7], the binding result is listed as “binds”.

B5: F6G-Var5 (other)
CAR polypeptide: B4 CAR polypeptide with D223N, Q227H
notes: also called F6G-Var5 CAR on iNKT cells (transient, CAR-RFP mRNA)
On to B5, for which the binding result with BCMA antigen [7] is on record as “binds”.

B6: F6G-Var4 (other)
CAR polypeptide: B4 CAR polypeptide with D223H, T225A
notes: also called F6G-Var4 CAR on iNKT cells (transient, CAR-RFP mRNA)
With B6, the binding result with BCMA antigen [7] was “binds”.

B7: F6G-Var3 (other)
CAR polypeptide: B4 CAR polypeptide with H35Q, N54I, D223N, Q227H
notes: also called F6G-Var3 CAR on iNKT cells (transient, CAR-RFP mRNA)
As to B7, the binding result with BCMA antigen [7] is recorded as “binds”.

B8: F6G-Var6 (other)
CAR polypeptide: B4 CAR polypeptide with G31E, H35K, S55T, N57K
notes: also called F6G-Var6 CAR on iNKT cells (transient, CAR-RFP mRNA)
For B8, in the test with BCMA antigen [7], the binding result was “binds”.

B9: F6G (other)
CAR polypeptide: B4 CAR polypeptide with Y181E
notes: also called F6G CAR on iNKT cells (transient, CAR-RFP mRNA)
On to B9, for which the binding result in the test with BCMA antigen [7] is recorded as “binds”.

B10: F6Gvar2 (antibody, V domains shown)
VH: QVQLVQSGAEVKKPGASVKVSCKASGYTFTGYYMQWVRQAPGQGLEWMGWMNPISGNTGYAQKFQGRVTMTRNTSISTAYMELSSLRSEDTAVYYCARAQWEPLDYWGQGTLVTVSS
VL: SYELTQPPSVSVSPGQTARITCSGDALPKKYTYWYQQKSGQAPVLVIYYDTKRPSGIPERFSGSSSGTMATLTISGAQVEDEADYYCLSTHPAGQESVFGGGTKLTVLG
B10: in the test with BCMA antigen [1], the Kd was found to be 2.35 nM, the dissociation rate constant (koff) amounted to 0.000325 s⁻¹ and the association rate constant (kon) is 138000 M⁻¹ s⁻¹. In the test with BCMA antigen [8], this molecule came in with a Kd of 2.35 nM, a koff of 0.000325 s⁻¹ and an on-rate (kon) of 138000 M⁻¹ s⁻¹.

B11: F6G huIgG1 (antibody, V domains shown)
VH: B10 VH with Q35H, I54N
VL: B10 VL with Y49E, H91D, A93T
notes: also called germline F6G expressed as human IgG1
For B11, in the test with BCMA antigen [1], the Kd turned out to be 97.8 nM, the dissociation rate constant (koff) came out at 0.0197 s⁻¹ and the kon was 201000 M⁻¹ s⁻¹.

B12: F6Gvar3 (antibody, V domains shown)
VH: B10 VH
VL: B10 VL with H91N, A93T, Q95H
Consider B12, for which, in the test with BCMA antigen [1], binding was characterised by a dissociation constant (Kd) of 2.12 nM, the off-rate (koff) is 0.000317 s⁻¹ and the kon was found to be 150000 M⁻¹ s⁻¹.
